B1: Gamma-crystallin C, residues 4 to 79; numbered along this chain, P07315 (parent)
chain: ITFYEDRAFQGRSYETTTDCPNLQPYFSRCNSIRVESGCWMLYERPNYQGQQYLLRRGEYPDYQQWMGLSDSIRSC

Variants of: B1
Assay: abundance fitness (aPCA) (normalised: wild type 0, dead -1); higher = more abundant; growth selection in yeast, the domain comes from the species named
Conditions: Homo sapiens

Abundance fitness, by site and new letter:
R45: M -0.001, K 0.089, S -0.127, I -0.16, H -0.057, A -0.025, T -0.001, D -0.11, W -0.04, N -0.169, V -0.15, F 0.032, L -0.146, P -0.955, G 0.061, Y 0.187, Q -0.13, C -0.142
L55: S -0.701, W -0.631, A -0.368, T -0.318, K -0.853, V -0.048, I 0.038, N -0.85, C -0.178, R -0.794, G -0.571, M -0.237, D -0.807, F -0.246, H -1.03
E44: L -0.006, W -0.372, H -0.137, R 0.002, T -0.206, V -0.147, M 0.355, I -0.02, F -0.414, C 0.068, A -0.034, D 0.022, Q 0.049, P -0.283, G 0.02, S -0.077
Q52: A -0.014, G -0.071, H 0.082, I -0.105, E 0.014, F 0.093, M -0.108, W -0.141, C -0.138, R -0.072, Y -0.326, S -0.041, V -0.076, D 0.102, T -0.114, N -0.053, L -0.017
M41: P -0.981, Q 0.046, V -0.115, F 0.104, H -0.186, E 0.059, Y 0.032, R -0.018, N -0.132, W 0.039, K -0.056, A -0.07, S 0.068, D -0.133, L -0.056, C -0.041
E36: A 0.048, D 0.021, T 0.11, G -0.031, V 0.008, L -0.078, K -0.074, N -0.004, I -0.201, F -0.131, W 0.003, S -0.032, R -0.069, M 0.019, P 0.018, Q -0.081
G50: H -0.857, K -0.574, C -0.336, R -0.555, S -0.244, D -0.456, E -0.372, L -0.894, A -0.276, N -0.359, V -0.788, I -0.806, M -1.02
S37: R -0.004, H -0.142, I 0.072, M -0.031, T 0.028, C -0.091, G -0.061, L -0.301, A -0.255, V 0.066, E -0.12, Q -0.124, W -0.113
C39: I -0.014, G 0.08, R -0.071, V 0.011, N -0.12, T -0.012, D -0.133, P 0.092, Q -0.088, F -0.036, E -0.045, M -0.027, W 0.031, S 0.062, Y -0.014, A -0.051, L -0.074
N47: A 0.047, W -0.086, I -0.308, R -0.038, L -0.01, M -0.044, G 0.08, T -0.1, S -0.115, K 0.025, E 0.047, P -0.909, Y 0.002, F -0.101, Q -0.179, C -0.159, V -0.181, H -0.125, D -0.032
Q51: C -0.19, I 0.078, T -0.159, S -0.015, E -0.023, P -0.219, L 0.014, D -0.056, A -0.012, G -0.047, W -0.149, V -0.016, M -0.088
L42: Y -0.728, V -0.011, M 0.045, S -0.287, R -1.16, N -0.967, T -0.095, Q -0.888, A -0.102, D -0.857, E -1.16, P -0.864, G -0.063, W -0.919, C -0.031
I33: S -0.642, P -0.756, T -0.494, R -0.883, W -0.776, M 0.191, V -0.094, K -0.835, Q -0.792
L54: E -0.004, S -0.003, Q 0.096, V 0.02, W -0.073, I -0.135, A -0.016, H -0.068, T -0.234, D -0.149, Y -0.393, N -0.025, C 0.085, M -0.044, K 0.057, P -0.092, R -0.104
Y48: G -0.109, S -0.324, M 0.148, A -0.329, F -0.584, R -0.508, L -0.182, E -0.373, K -0.813, N -0.121, T -0.626, C 0.083, V -0.955, H 0.042
Y43: D -0.817, Q -0.86, W -0.139, P -1.03, G -0.775, M -0.296, H 0.055, T -0.249, L -0.889, V -1.05, R -0.926, A -0.156, F -0.15, C 0.111, S 0.094
R34: Y -0.098, H -0.163, P -0.827, E -0.373, F -0.113, D -0.382, C -0.107, Q -0.041, G -0.593, V -0.039, S -0.143, M -0.153, A 0.026, W -0.045, L -0.077, T 0.047
W40: T -0.43, S -0.451, P -0.939, G -0.435, E -0.978, D -0.849, Y -0.16, C 0.03, L -0.243, R -0.969, I 0.01, M -0.496, V 0.088, A 0.036
V35: E -1.11, R -0.893, Y -0.827, M -0.84, A -0.422, T -0.081, S -0.589, Q -0.854, I -0.916, L -0.038, C -0.291, W -1.08, G -1.01, P -1.03
G38: Y -0.109, L -0.177, K -0.177, A -0.008, D 0.171, I -0.202, E -0.009, C -0.005, P -0.108, M -0.141, R -0.153, W -0.427, H -0.309, T -0.191, S 0
Y53: R -0.019, K -0.026, A -0.127, P -0.947, C -0.113, Q -0.094, I 0.131, S 0.022, N -0.062, F -0.015, E -0.142, W 0.084, G -0.143, V -0.025, T -0.146, M -0.005
Q49: Y -0.013, N -0.053, E 0.098, G -0.045, M -0.115, W -0.275, L 0.022, V -0.098, C 0.33, F -0.298, R -0.07, K -0.056, D -0.041, A -0.02, P -0.805, T 0.026

Reference: the Human Domainome abundance scans (Beltran et al. 2025)
